B1: C1orf137 (parent)
chain: RQHHHQSSFPGSLPQETNLTLKVC

Variants of: B1
Assay: protein stability index of a GFP-peptide fusion (GPS, HEK-293T) (PSI 1-6); higher = more stable
Conditions: c terminus: a fixed tail appended
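Further: lentivirally expressed fusions sorted by FACS into six bins by GFP to DsRed ratio, PSI derived from sequencing read proportions per bin multiplied by bin number.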

Variant | protein stability index
RQHHHQSSFPGSLSQETNLTLKVC | 2.72
RQHHHQSSFPGSLHQETNLTLKVC | 2.37
RQHHHQSSFPGSLFQETNLTLKVC | 2
RQHHHQSSFPGSLWQETNLTLKVC | 1.62
RQHHHQSSFPGSLTQETNLTLKVC | 2.71
RQHHHQSSFPGSLQQETNLTLKVC | 3.44
RQHHHQSSFPGSLMQETNLTLKVC | 2.02
RQHHHQSSFPGSLLQETNLTLKVC | 2.29
RQHHHQSSFPGSLKQETNLTLKVC | 3.13
RQHHHQSSFPGSLEQETNLTLKVC | 3.17
RQHHHQSSFPGSLCQETNLTLKVC | 2.85
RQHHHQSSFPGSLYQETNLTLKVC | 2.11
RQHHHQSSFPGSLNQETNLTLKVC | 2.54
RQHHHQSSFPGSLGQETNLTLKVC | 3.18
RQHHHQSSFPGSLVQETNLTLKVC | 2.55
RQHHHQSSFPGSLIQETNLTLKVC | 2.24
RQHHHQSSFPGSLAQETNLTLKVC | 3.15
RQHHHQSSFPGSLDQETNLTLKVC | 3.55
RQHHHQSSFPGSLRQETNLTLKVC | 2.4
RQHHHQSSFPGSLPQETSLTLKVC | 2.65
RQHHHQSSFPGSLPQETMLTLKVC | 2.51
RQHHHQSSFPGSLPQETQLTLKVC | 3.66
RQHHHQSSFPGSLPQETILTLKVC | 2
RQHHHQSSFPGSLPQETLLTLKVC | 2.2

Variant | protein stability index
RQHHHQSSFPGSLPQETFLTLKVC | 2.55
RQHHHQSSFPGSLPQETTLTLKVC | 2
RQHHHQSSFPGSLPQETHLTLKVC | 1.84
RQHHHQSSFPGSLPQETDLTLKVC | 3.83
RQHHHQSSFPGSLPQETRLTLKVC | 2.29
RQHHHQSSFPGSLPQETELTLKVC | 2.77
RQHHHQSSFPGSLPQETCLTLKVC | 1.96
RQHHHQSSFPGSLPQETPLTLKVC | 3.17
RQHHHQSSFPGSLPQETYLTLKVC | 2.08
RQHHHQSSFPGSLPQETGLTLKVC | 3.65
RQHHHQSSFPGSLPQETKLTLKVC | 2.89
RQHHHQSSFPGSLPQETVLTLKVC | 2.46
RQHHHQSSFPGSLPQETWLTLKVC | 1.06
RQHHHQSSFPGSLPQETALTLKVC | 2.76
RQHHHQSSFRGSLPQETNLTLKVC | 3.75
RQHHHQSSFHGSLPQETNLTLKVC | 2.77
RQHHHQSSFDGSLPQETNLTLKVC | 2.99
RQHHHQSSFNGSLPQETNLTLKVC | 2.69
RQHHHQSSFKGSLPQETNLTLKVC | 3.44
RQHHHQSSFFGSLPQETNLTLKVC | 2.27
RQHHHQSSFVGSLPQETNLTLKVC | 2.65
RQHHHQSSFMGSLPQETNLTLKVC | 2.19
RQHHHQSSFQGSLPQETNLTLKVC | 3.06
RQHHHQSSFSGSLPQETNLTLKVC | 3.46

Variant | protein stability index
RQHHHQSSFLGSLPQETNLTLKVC | 2.25
RQHHHQSSFYGSLPQETNLTLKVC | 2.4
RQHHHQSSFIGSLPQETNLTLKVC | 2.56
RQHHHQSSFCGSLPQETNLTLKVC | 2.38
RQHHHQSSFEGSLPQETNLTLKVC | 2.6
RQHHHQSSFWGSLPQETNLTLKVC | 1.99
RQHHHQSSFTGSLPQETNLTLKVC | 3.25
RQHHHQSSFAGSLPQETNLTLKVC | 3.24
RQHHHQSSFPGSLPQEQNLTLKVC | 3.24
RQHHHQSSFPGSLPQERNLTLKVC | 3.28
RQHHHQSSFPGSLPQEYNLTLKVC | 2.09
RQHHHQSSFPGSLPQEVNLTLKVC | 2.17
RQHHHQSSFPGSLPQECNLTLKVC | 2.46
RQHHHQSSFPGSLPQEFNLTLKVC | 2.49
RQHHHQSSFPGSLPQEANLTLKVC | 2.87
RQHHHQSSFPGSLPQEDNLTLKVC | 3.89
RQHHHQSSFPGSLPQESNLTLKVC | 3.02
RQHHHQSSFPGSLPQEHNLTLKVC | 2.39
RQHHHQSSFPGSLPQEKNLTLKVC | 3.54
RQHHHQSSFPGSLPQELNLTLKVC | 1.57
RQHHHQSSFPGSLPQEGNLTLKVC | 3.28
RQHHHQSSFPGSLPQEINLTLKVC | 1.17
RQHHHQSSFPGSLPQEPNLTLKVC | 2.98
RQHHHQSSFPGSLPQEWNLTLKVC | 1.41

Variant | protein stability index
RQHHHQSSFPGSLPQENNLTLKVC | 3.15
RQHHHQSSFPGSLPQEENLTLKVC | 3.95
RQHHHQSSFPGSLPQEMNLTLKVC | 2.44
RQHHHQSSTPGSLPQETNLTLKVC | 3.42
RQHHHQSSRPGSLPQETNLTLKVC | 3.7
RQHHHQSSVPGSLPQETNLTLKVC | 3.46
RQHHHQSSHPGSLPQETNLTLKVC | 3.64
RQHHHQSSGPGSLPQETNLTLKVC | 4.03
RQHHHQSSYPGSLPQETNLTLKVC | 3.41
RQHHHQSSWPGSLPQETNLTLKVC | 3.27
RQHHHQSSLPGSLPQETNLTLKVC | 3.53
RQHHHQSSKPGSLPQETNLTLKVC | 4.33
RQHHHQSSMPGSLPQETNLTLKVC | 3.18
RQHHHQSSPPGSLPQETNLTLKVC | 3.38
RQHHHQSSNPGSLPQETNLTLKVC | 3.88
RQHHHQSSDPGSLPQETNLTLKVC | 4.08
RQHHHQSSIPGSLPQETNLTLKVC | 3.3
RQHHHQSSCPGSLPQETNLTLKVC | 3.16
RQHHHQSSSPGSLPQETNLTLKVC | 3.16
RQHHHQSSFPGSLPQETNCTLKVC | 3.32
RQHHHQSSFPGSLPQETNATLKVC | 4.07
RQHHHQSSFPGSLPQFTNLTLKVC | 2.28

Source: the supplement of paper PMC10567573
